Each block holds one binder with its values, some of them ahead of it.
Tests used:
[1] = target: T1, recombinant human CD40 (residues 21-192) fused to a 6×His-tag at the carboxy-terminus (human, UniProt P25942 21-192); assay: BLI, soluble monomeric human CD40-His
T1 construct: range 21-192; also called Human CD40-His; soluble, monomeric human CD40-His
Experimental: Dissociation constants (KD), on-rates (kon) and off-rates (koff) for the 10F12 chimeric mAb were determined by BLI using soluble, monomeric human CD40-His (Table 1).

human CD40 on cells [2] = target: T2, human CD40 on cells (human, UniProt P25942 21-277); assay: cell-based or functional assay
human CD40 on cells [3] = target: T2, human CD40 on cells; assay: flow cytometry, Raji cells (endogenous CD40)
Experimental: (§1) To assess the binding of TDI-Y-003 to cell surface-bound CD40, HEK293 overexpressing CD40 as well as Raji cells (B-lymphocytes) and primary human dendritic cells, which express endogenous CD40, were used. TDI-Y-003 bound HEK293-CD40 and Raji cells with EC₅₀ values in the sub-nanomolar range at 0.44 and 0.77 nM, respectively (Table 5).

Mouse CD40-His = target: T3, Mouse CD40-His (mouse, UniProt P27512 24-192, limits assumed); assay: BLI, Octet Red96e
T3 construct: also called monomeric mouse CD40; not shown: His tag
T3 sequence (looked up): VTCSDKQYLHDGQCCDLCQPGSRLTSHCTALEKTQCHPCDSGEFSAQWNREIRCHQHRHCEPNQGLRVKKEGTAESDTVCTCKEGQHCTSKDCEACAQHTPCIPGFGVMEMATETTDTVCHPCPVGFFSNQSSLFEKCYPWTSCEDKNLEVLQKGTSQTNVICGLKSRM
Experimental: (§2) Affinity to cynomolgus monkey and mouse CD40 was measured by BLI using an Octet Red96e.

Cyno CD40-His = target: T4, Cyno CD40-His (cynomolgus monkey, UniProt G7PG38 21-192); assay: BLI, Octet Red96e
T4 construct: also called monomeric cynomolgus monkey CD40; not shown: His tag
Experimental: as §2

human CD40-Fc = target: T5, human CD40-Fc (human, UniProt P25942 21-192); assay: BLI, Octet Red96e; avidity between bivalent IgG and dimeric CD40-Fc
T5 construct: range 21-192; also called dimeric CD40-Fc; not shown: human Fc fragment fused to the carboxy-terminus
Experimental: (§3) Antibody TDI-Y-003 produced in stable CHO pools was tested in a series of binding and functional assays in vitro as well as an in vivo study in a disease-relevant animal model. Affinity to human CD40 was measured by BLI using an Octet Red96e. […] The slower off-rate seen for this interaction is likely a result of the avidity between the bivalent TDI-Y-003 IgG and the dimeric CD40-Fc.

human CD40 on cells [4] = target: T2, human CD40 on cells; assay: flow cytometry competition on HEK293 cells stably expressing CD40; competitor HA-tagged CD40 ligand detected with PE anti-HA
Experimental: FIG. 4. Competitive binding of TDI-Y-003 with CD40 ligand to CD40 stably expressed on HEK293 cells. HEK293 cells stably expressing CD40 were co-incubated with either TDI-Y-003 or isotype control antibody and HA-tagged CD40 ligand. CD40 ligand binding was assessed by flow cytometry with a PE labeled anti-HA antibody. Results are normalized to secondary antibody only controls (MFI ratio).
Competitive binding of TDI-Y-003 with CD40L for binding to CD40 was assessed using HEK293 cells stably expressing CD40. Cells were co-incubated with HA tagged CD40 ligand and TDI-Y-003 or isotype control at the indicated concentrations and analyzed for CD40 ligand binding by flow cytometry (FIG. 4).

human CD40 on cells [5] = target: T2, human CD40 on cells; assay: cell-based or functional assay; remark: listed apart in the source
human CD40 on cells [6] = target: T2, human CD40 on cells; assay: flow cytometry, HEK293 cells overexpressing CD40
Experimental: as §1

human CD40 on cells [7] = target: T2, human CD40 on cells; assay: flow cytometry, primary human dendritic cells (endogenous CD40)
Experimental: as §1

[8] = target: T1, recombinant human CD40 (residues …); assay: BLI, Octet Red96e
Experimental: as §3

human CD40 on cells [9] = target: T2, human CD40 on cells; assay: cell-based or functional assay; remark: listed apart in the source

T2 sequence (P25942 21-277): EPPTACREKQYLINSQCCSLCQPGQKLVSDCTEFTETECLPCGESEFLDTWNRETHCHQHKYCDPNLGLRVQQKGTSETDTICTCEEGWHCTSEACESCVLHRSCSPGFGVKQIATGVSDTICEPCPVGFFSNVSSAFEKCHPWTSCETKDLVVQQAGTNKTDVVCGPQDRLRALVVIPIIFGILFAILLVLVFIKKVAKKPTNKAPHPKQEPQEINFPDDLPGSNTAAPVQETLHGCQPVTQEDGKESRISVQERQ
T1 sequence (P25942 other isoform, or with tags, fused parts or gaps limits assumed): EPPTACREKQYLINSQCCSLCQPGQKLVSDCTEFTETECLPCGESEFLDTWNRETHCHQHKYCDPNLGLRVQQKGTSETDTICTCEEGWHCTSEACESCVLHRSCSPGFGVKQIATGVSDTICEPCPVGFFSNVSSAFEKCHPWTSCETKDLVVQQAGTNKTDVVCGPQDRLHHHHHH
T5 sequence (P25942 21-192): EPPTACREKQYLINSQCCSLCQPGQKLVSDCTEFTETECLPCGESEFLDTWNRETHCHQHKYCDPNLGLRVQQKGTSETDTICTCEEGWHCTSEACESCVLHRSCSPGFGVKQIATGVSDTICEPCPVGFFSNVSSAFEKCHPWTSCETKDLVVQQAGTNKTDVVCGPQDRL

B1: 10F12 chimeric mAb, human IgG1 (antibody, V domains shown)
VH: QVQLKQSGPGLVQPSQSLSITCTVSGFSLTTYGLHWVRQSPGKGLEWLGVIWRGGNTDYNAAFMSRLSITKDNSKSQVFFKMNSLQADDTAIYYCAKNSYYGNGGHAMDYWGQGTSVTVSS
VL: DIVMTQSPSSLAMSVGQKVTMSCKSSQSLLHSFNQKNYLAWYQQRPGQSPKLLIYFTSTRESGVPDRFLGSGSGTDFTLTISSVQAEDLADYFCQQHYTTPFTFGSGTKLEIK
notes: Mouse variable regions fused to human constant regions of the IgG1 subclass; Expressed in HEK293 cells; also called 10-F12 (Human IgG1)
Kd [1]: 27.1 nM
koff [1]: 0.0071 s⁻¹
kon [1]: 262000 M⁻¹ s⁻¹
EC50 for agonist activity (HEK293-CD40 NF-κB-Luciferase reporter system) (human CD40 on cells [2]): 0.333 nM
Max Stim [% CD40L] (HEK293-CD40 NF-κB-Luciferase reporter system) (human CD40 on cells [2]): 63.4 % CD40L

B5: human CD40L (ligand, UniProt P29965 113-261, looked up)
chain: MQKGDQNPQIAAHVISEASSKTTSVLQWAEKGYYTMSNNLVTLENGKQLTVKRQGLYYIYAQVTFCSNREASSQAPFIASLCLKSPGRFERILLRAANTHSSAKPCGQQSIHLGGVFELQPGASVFVNVTDPSQVSHGTGFTSFGLLKL
EC50 for agonist activity (HEK293-CD40 NF-κB-Luciferase reporter system) (human CD40 on cells [2]): 3.58 nM
Max Stim [% CD40L] (HEK293-CD40 NF-κB-Luciferase reporter system) (human CD40 on cells [2]): 100 % CD40L
EC50 in agonist assay (HEK293 NF-kB-luciferase reporter line stably expressing CD40) (human CD40 on cells [9]): 9.62 nM

B6: TDI-Y-003 F(ab′)2 fragment generated by pepsin cleavage (other)
heavy: QVQLQESGPGLVKPSETLSLTCTVSGFSLTTYGLHWIRQPPGKGLEWIGVIWRGGNTDYNPSLKSRVTISKDTSKNQVSLKLSSVTAADTAVYYCAKNSYYGQGGHAMDYWGQGTLVTVSSASTKGPSVFPLAPCSRSTSESTAALGCLVKDYFPEPVTVSWNSGALTSGVHTFPAVLQSSGLYSLSSVVTVPSSNFGTQTYTCNVDHKPSNTKVDKTVERKCCVECPPCPAPPVAGPSVFLFPPKPKDTLMISRTPEVTCVVVDVSHEDPEVQFNWYVDGVEVHNAKTKPREEQFNSTFRVVSVLTVVHQDWLNGKEYKCKVSNKGLPAPIEKTISKTKGQPREPQVYTLPPSREEMTKNQVSLTCLVKGFYPSDIAVEWESNGQPENNYKTTPPMLDSDGSFFLYSKLTVDKSRWQQGNVFSCSVMHEALHNHYTQKSLSLSPG
light: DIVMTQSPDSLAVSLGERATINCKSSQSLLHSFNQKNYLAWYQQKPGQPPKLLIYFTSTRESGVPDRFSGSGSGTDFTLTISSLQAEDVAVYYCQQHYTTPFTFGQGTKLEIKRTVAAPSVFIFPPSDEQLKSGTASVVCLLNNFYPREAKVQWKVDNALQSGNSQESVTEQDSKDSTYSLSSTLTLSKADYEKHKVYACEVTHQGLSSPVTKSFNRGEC
EC50 in agonist assay (HEK293 NF-kB-luciferase reporter line stably expressing CD40) (human CD40 on cells [9]): 2.14 nM

Now from value to binder:

Kd [1]: 26.5 nM
koff [1]: 0.00911 s⁻¹
kon [1]: 344000 M⁻¹ s⁻¹
EC50 for agonist activity (HEK293-CD40 NF-κB-Luciferase reporter system) (human CD40 on cells [2]): 0.01 nM
Max Stim [% CD40L] (HEK293-CD40 NF-κB-Luciferase reporter system) (human CD40 on cells [2]): 96.5 % CD40L
B2: 10F12 chimeric mAb, human IgG2 (antibody, V domains shown)
VH: QVQLKQSGPGLVQPSQSLSITCTVSGFSLTTYGLHWVRQSPGKGLEWLGVIWRGGNTDYNAAFMSRLSITKDNSKSQVFFKMNSLQADDTAIYYCAKNSYYGNGGHAMDYWGQGTSVTVSS
VL: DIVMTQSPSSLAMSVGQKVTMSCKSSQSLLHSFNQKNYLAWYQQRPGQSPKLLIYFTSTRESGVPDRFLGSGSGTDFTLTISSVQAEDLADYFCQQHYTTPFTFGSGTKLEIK
notes: Mouse variable regions fused to human constant regions of the IgG2 subclass; Expressed in HEK293 cells; also called 10-F12 (Human IgG2); 10-F12 hIgG2

EC50 (human CD40 on cells [3]): 0.77 nM
binding result (Mouse CD40-His): no binding (tested: 1.7 µM)
Kd (Cyno CD40-His): 48 nM
koff (Cyno CD40-His): 0.0471 s⁻¹
kon (Cyno CD40-His): 977000 M⁻¹ s⁻¹
Kd (human CD40-Fc): 1.2 nM
koff (human CD40-Fc): 0.0013 s⁻¹
kon (human CD40-Fc): 1e+06 M⁻¹ s⁻¹
IC50 (human CD40 on cells [4]): 1.07 nM
EC50 in DC activation assay, marker CD80 (human CD40 on cells [5]): 2 nM
EC50 in DC activation assay, marker CD86 (human CD40 on cells [5]): 5.5 nM
EC50 in DC activation assay, marker HLA-ABC (human CD40 on cells [5]): 2.5 nM
EC50 in DC activation assay, marker HLA-DR (human CD40 on cells [5]): 1.7 nM
EC50 (human CD40 on cells [6]): 0.44 nM
EC50 (human CD40 on cells [7]): 3.85 nM
Kd [8]: 40 nM
koff [8]: 0.048 s⁻¹
kon [8]: 1.2e+06 M⁻¹ s⁻¹
EC50 in agonist assay (HEK293 NF-kB-luciferase reporter line stably expressing CD40) (human CD40 on cells [9]): 0.64 nM
B3: TDI-Y-003 (antibody, human IgG2, kappa, V domains shown)
VH: QVQLQESGPGLVKPSETLSLTCTVSGFSLTTYGLHWIRQPPGKGLEWIGVIWRGGNTDYNPSLKSRVTISKDTSKNQVSLKLSSVTAADTAVYYCAKNSYYGQGGHAMDYWGQGTLVTVSS
VL: DIVMTQSPDSLAVSLGERATINCKSSQSLLHSFNQKNYLAWYQQKPGQPPKLLIYFTSTRESGVPDRFSGSGSGTDFTLTISSLQAEDVAVYYCQQHYTTPFTFGQGTKLEIKR
notes: also called Hu10F12 (N103Q); hu10F12 (N103Q)

EC50 in agonist assay (HEK293 NF-kB-luciferase reporter line stably expressing CD40) (human CD40 on cells [9]): 112 nM
B4: TDI-Y-003 Fab fragment generated by papain cleavage (Fab, V domains shown)
VH: QVQLQESGPGLVKPSETLSLTCTVSGFSLTTYGLHWIRQPPGKGLEWIGVIWRGGNTDYNPSLKSRVTISKDTSKNQVSLKLSSVTAADTAVYYCAKNSYYGQGGHAMDYWGQGTLVTVSS
VL: DIVMTQSPDSLAVSLGERATINCKSSQSLLHSFNQKNYLAWYQQKPGQPPKLLIYFTSTRESGVPDRFSGSGSGTDFTLTISSLQAEDVAVYYCQQHYTTPFTFGQGTKLEIKR
